Assay results reported in US20070111260A1.

How the values were obtained:
[1] = target: Human αvβ3 integrin (Chemicon, #CC1018), biotinylated (human) (UniProt P06756); assay: flow cytometry, 293A cells displaying the ScFvFc, αVβ3-biotin 0.5 ug/ml, APC-streptavidin
[2] = target: Human αvβ3 integrin (Chemicon, #CC1018), biotinylated (human) (UniProt P06756); assay: flow cytometry, 293A cells displaying the ScFvFc, αVβ3-biotin 1 ug/ml, APC-streptavidin
[3] = target: Human αvβ3 integrin (Chemicon, #CC1018), biotinylated (human) (UniProt P06756); assay: flow cytometry, 293A cells displaying the ScFvFc, αVβ3-biotin 5 ug/ml, APC-streptavidin
[4] = target: Human αvβ3 integrin (Chemicon, #CC1018), biotinylated (human) (UniProt P06756); assay: flow cytometry, 293A cells displaying the ScFvFc, αVβ3-biotin 2.5 ug/ml, APC-streptavidin
[5] = target: Human αvβ3 integrin (Chemicon, #CC1018), biotinylated (human) (UniProt P06756); assay: flow cytometry, 293A cells displaying the ScFvFc, αVβ3-biotin 10 ug/ml, APC-streptavidin

Human αvβ3 integrin (Chemicon, #CC1018), biotinylated (human), sequence (P06756 31-1048 limits assumed, chain 1 of 2): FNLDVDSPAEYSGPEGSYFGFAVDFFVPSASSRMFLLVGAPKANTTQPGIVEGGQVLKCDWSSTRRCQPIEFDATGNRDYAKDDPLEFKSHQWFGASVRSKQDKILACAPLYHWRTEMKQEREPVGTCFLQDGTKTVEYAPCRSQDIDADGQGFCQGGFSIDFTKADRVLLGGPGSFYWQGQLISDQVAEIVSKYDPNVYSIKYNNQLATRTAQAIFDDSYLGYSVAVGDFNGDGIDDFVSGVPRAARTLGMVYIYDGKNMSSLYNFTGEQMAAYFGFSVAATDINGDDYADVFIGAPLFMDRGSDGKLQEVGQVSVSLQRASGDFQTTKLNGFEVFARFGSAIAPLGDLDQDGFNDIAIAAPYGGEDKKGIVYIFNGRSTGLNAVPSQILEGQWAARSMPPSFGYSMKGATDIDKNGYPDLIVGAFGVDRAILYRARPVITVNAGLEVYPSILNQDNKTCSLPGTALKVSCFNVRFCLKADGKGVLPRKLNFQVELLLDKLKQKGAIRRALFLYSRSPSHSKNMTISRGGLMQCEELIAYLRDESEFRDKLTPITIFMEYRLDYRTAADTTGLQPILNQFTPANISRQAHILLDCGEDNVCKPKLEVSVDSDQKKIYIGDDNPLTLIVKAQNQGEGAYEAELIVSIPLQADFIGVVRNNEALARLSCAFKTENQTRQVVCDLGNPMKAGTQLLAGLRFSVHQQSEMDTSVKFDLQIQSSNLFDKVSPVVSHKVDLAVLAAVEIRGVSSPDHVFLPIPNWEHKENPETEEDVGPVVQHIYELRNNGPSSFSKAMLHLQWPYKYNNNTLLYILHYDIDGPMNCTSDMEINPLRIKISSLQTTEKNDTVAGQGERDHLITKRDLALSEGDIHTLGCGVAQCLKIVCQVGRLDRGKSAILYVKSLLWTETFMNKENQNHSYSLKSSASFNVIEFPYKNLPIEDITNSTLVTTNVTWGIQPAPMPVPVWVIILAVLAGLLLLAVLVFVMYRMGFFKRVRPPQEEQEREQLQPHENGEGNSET
Human αvβ3 integrin (Chemicon, #CC1018), biotinylated (human), sequence (P05106 27-788 limits assumed, chain 2 of 2, further chain): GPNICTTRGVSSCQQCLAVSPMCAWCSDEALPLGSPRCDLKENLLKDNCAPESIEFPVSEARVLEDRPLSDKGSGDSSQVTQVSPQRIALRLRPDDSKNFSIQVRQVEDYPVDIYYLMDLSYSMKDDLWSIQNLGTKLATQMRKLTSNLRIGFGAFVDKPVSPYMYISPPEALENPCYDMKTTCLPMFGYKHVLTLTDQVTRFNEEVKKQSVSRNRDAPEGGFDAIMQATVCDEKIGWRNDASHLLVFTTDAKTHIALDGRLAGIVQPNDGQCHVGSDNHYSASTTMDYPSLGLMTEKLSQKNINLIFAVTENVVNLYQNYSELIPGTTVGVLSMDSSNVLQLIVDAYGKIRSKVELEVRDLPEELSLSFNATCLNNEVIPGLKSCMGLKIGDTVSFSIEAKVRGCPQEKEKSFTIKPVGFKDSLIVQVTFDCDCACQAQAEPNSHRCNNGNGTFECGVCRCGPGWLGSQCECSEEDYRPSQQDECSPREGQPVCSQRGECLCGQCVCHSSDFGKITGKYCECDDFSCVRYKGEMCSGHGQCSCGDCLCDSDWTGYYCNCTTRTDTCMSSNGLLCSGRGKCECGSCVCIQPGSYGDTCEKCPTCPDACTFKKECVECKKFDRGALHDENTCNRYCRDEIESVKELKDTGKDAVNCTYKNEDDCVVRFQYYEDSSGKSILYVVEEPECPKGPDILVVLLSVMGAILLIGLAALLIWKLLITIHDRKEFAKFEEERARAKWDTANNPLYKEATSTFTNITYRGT

B1: Abegrin anti-αvβ3 integrin ScFvFc, displayed on 293A cells (scFv, INN chains, looked up, V domains shown)
VH: QVQLVESGGGVVQPGRSLRLSCAASGFTFSSYDMSWVRQAPGKGLEWVAKVSSGGGSTYYLDTVQGRFTISRDNSKNTLYLQMNSLRAEDTAVYYCARHLHGSFASWGQGTTVTVSS
VL: EIVLTQSPATLSLSPGERATLSCQASQSISNFLHWYQQRPGQAPRLLIRYRSQSISGIPARFSGSGSGTDFTLTISSLEPEDFAVYYCQQSGSWPLTFGGGTKVEIK
modifications: scFv-Fc displayed on 293A cell surface
[1]
  Percentage of positively stained cell: 81%
[2]
  Percentage of positively stained cell: 83%
[3]
  Percentage of positively stained cell: 84%
[4]
  Percentage of positively stained cell: 85%
[5]
  Percentage of positively stained cell: 90%
